Results: the RNAGym collection of RNA variant scans (doi:10.1093/molbev/msab373)

B1: Azoarcus group I ribozyme (parent)
chain: GUGCCUUGCGCCGGGAAACCACGCAAGGGAUGGUGUCAAAUUCGGCGAAACCUAAGCGCCCGCCCGGGCGUAUGGCAACGCCGAGCCAAGCUUCGGCGCCUGCGCCGAUGAAGGUGUAGAGACUAGACGGCACCCACCUAAGGCAAACGCUAUGGUGAAGGCAUAGUCCAGGGAGUGGCGAAAGUCACACAAACCGG

Variants of: B1
Test: reverse-splicing fitness (ratio to wild type); higher = more active; in vitro selection; Mg2+ level not given
How it was run: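 An in vitro group I ribozyme library with randomized positions was T7-transcribed and gel-purified. In triplicate, 10 pmol RNA in EPPS pH 7.5 was reacted with 50 pmoles of a 30-nt RNA substrate for 1 h at 37 °C across several added MgCl2 levels (1–48 mM), then stopped with EDTA. Products were reverse transcribed from a substrate-complementary primer, PCR-amplified and sequenced (HiSeq 4000). Fitness is a variant's read proportion after selection over that before, normalised to wild type.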

Row | Variant | reverse-splicing fitness
1 | C82U A111U A120C A145G C150A | 0.0116
2 | C82U A111U A120C A145G C150G | 0.00928
3 | C82U A111G C150A C169U | 0.00979
4 | C82U A111G C150A C169G | 0.00918
5 | C82U A111G C150A C169A | 0.00969
6 | C82U A111U A120C | 0.0288
7 | C82U A111G C150A C169U U176A | 0.0155
8 | C82U A111G C150A C169U U176C | 0.0161
9 | C82U A111G C150A C169U U176G | 0.00684
10 | C82U A111U A120C A145G C150A C169A U176C | 0.0189
11 | C82U A111U A120C A145G C150A C169A U176G | 0.0059
12 | C82U A111U A120C A145G C150A C169A U176A | 0.0207
13 | C82U A111U A120C A145C C150U C169A | 0.00709
14 | C82U A111U A120C A145C C150U C169G | 0.00639
15 | C82U A111U A120C A145C C150U C169U | 0.00899
16 | C82U A111U A120C A145G C150U C169G U176G | 0.00514
17 | C82U A111U A120C A145G C150U C169G U176C | 0.016
18 | C82U A111U A120C A145G C150U C169G U176A | 0.0128
19 | C82U A111G A145U C150A U176C | 0.0305
20 | C82U A111G A145U C150A U176A | 0.0234
21 | C82U A111G A145U C150A U176G | 0.0097

Row | Variant | reverse-splicing fitness
22 | C82U A111G A145U C150U U176G | 0.0347
23 | C82U A111G A145U C150U U176A | 0.123
24 | C82U A111G A145U C150U U176C | 0.172
25 | C82U A111U A120C A145C C150G U176C | 0.00663
26 | C82U A111U A120C A145C C150G U176G | 0.00237
27 | C82U A111U A120C A145C C150G U176A | 0.00494
28 | C82U A111U A120C A145U C169A U176G | 0.00442
29 | C82U A111U A120C A145U C169A U176C | 0.00749
30 | C82U A111U A120C A145U C169A U176A | 0.00849
31 | C82U A111G A145U C169G U176A | 0.00999
32 | C82U A111G A145U C169G U176G | 0.00474
33 | C82U A111G A145U C169G U176C | 0.00876
34 | C82U A111U A120C A145G C150G C169G U176C | 0.0112
35 | C82U A111U A120C A145G C150G C169G U176A | 0.00984
36 | C82U A111U A120C A145G C150G C169G U176G | 0.00574
37 | C82U A111U A120C A145C C150U C169U U176G | 0.00464
38 | C82U A111U A120C A145C C150U C169U U176C | 0.0108
39 | C82U A111U A120C A145C C150U C169U U176A | 0.015
40 | C82U A111G A145U C150G C169A | 0.00869
41 | C82U A111G A145U C150G C169G | 0.00642
42 | C82U A111G A145U C150G C169U | 0.00901

Row | Variant | reverse-splicing fitness
43 | C82U A111U A120C A145U C150A C169G U176G | 0.00527
44 | C82U A111U A120C A145U C150A C169G U176A | 0.0124
45 | C82U A111U A120C A145U C150A C169G U176C | 0.0124
46 | C82U A111G A145U C150A C169A U176C | 0.00854
47 | C82U A111G A145U C150A C169A U176G | 0.00532
48 | C82U A111G A145U C150A C169A U176A | 0.0129
49 | C82U A111U A120C A145C C150G C169U U176G | 0.00477
50 | C82U A111U A120C A145C C150G C169U U176C | 0.0116
51 | C82U A111U A120C A145C C150G C169U U176A | 0.0108
52 | C82U A111U A120C A145C C150G C169G U176G | 0.0044
53 | C82U A111U A120C A145C C150G C169G U176C | 0.00632
54 | C82U A111U A120C A145C C150G C169G U176A | 0.00839
55 | C82U A111G A145G C169G | 0.00933
56 | C82U A111G A145G C169A | 0.00814
57 | C82U A111G A145G C169U | 0.0113
58 | C82U A111U A120C A145C C150G | 0.00726
59 | C82U A111U A120C A145C C150U | 0.0119
60 | C82U A111U A120C A145C C150A | 0.00788
61 | C82U A111U A120C A145C C169U U176A | 0.013
62 | C82U A111U A120C A145C C169U U176C | 0.0109
63 | C82U A111U A120C A145C C169U U176G | 0.00412

Row | Variant | reverse-splicing fitness
64 | C82U A111U A120C A145G C150A C169G U176C | 0.0229
65 | C82U A111U A120C A145G C150A C169G U176G | 0.00516
66 | C82U A111U A120C A145G C150A C169G U176A | 0.0169
67 | C82U A111U A120C A145G C150A C169U U176C | 0.0167
68 | C82U A111U A120C A145G C150A C169U U176A | 0.0148
69 | C82U A111U A120C A145G C150A C169U U176G | 0.00615
70 | C82U A111G A145U C169U U176G | 0.00468
71 | C82U A111G A145U C169U U176A | 0.012
72 | C82U A111G A145U C169U U176C | 0.00988
73 | C82U A111U A120C A145U C150A U176C | 0.00963
74 | C82U A111U A120C A145U C150A U176A | 0.0115
75 | C82U A111U A120C A145U C150A U176G | 0.0048
76 | C82U A111U A120C A145G C150G C169A U176A | 0.0133
77 | C82U A111U A120C A145G C150G C169A U176G | 0.00845
78 | C82U A111U A120C A145G C150G C169A U176C | 0.0137
79 | C82U A111G A145U C169A U176C | 0.00683
80 | C82U A111G A145U C169A U176G | 0.00528
81 | C82U A111G A145U C169A U176A | 0.00885
82 | C82U A111G A145U C150U C169A U176G | 0.00546
83 | C82U A111G A145U C150U C169A U176C | 0.00733
